B3: CCL17_HUMAN (ligand)
chain: ARGTNVGRECCLEYFKGAIPLRKLKTWYQTSEDCSRDAIVFVTVQGRAICSDPNNKRVKNAVKYLQSLERS
notes: Biotinylated (detected with streptavidin-Alexa647) in yeast display; AlexaFluor 647 labelled (Almac) in thermophoresis
B4: CCL3_HUMAN (ligand)
chain: SLAADTPTACCFSYTSRQIPQNFIADYFETSSQCSKPGVIFLTKRSRQVCADPSEEWVQKYVSDLELSA
notes: as for B3

Legend:
[1] = target: T1, CCL1_HUMAN (human, UniProt P22362 24-96); assay: yeast surface display library FACS screen, labelled chemokine (col C: isolated in)
T1 construct: Biotinylated (detected with streptavidin-Alexa647) in yeast display; AlexaFluor 647 labelled (Almac) in thermophoresis
T1 sequence: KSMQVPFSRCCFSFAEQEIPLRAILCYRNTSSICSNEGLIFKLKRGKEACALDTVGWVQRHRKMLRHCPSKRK

[2] = target: T2, CCL11_HUMAN (human, UniProt P51671 24-97); assay: as above
T2 construct: Biotinylated (detected with streptavidin-Alexa647) in yeast display; AlexaFluor 647 labelled (Almac) in thermophoresis

[3] = target: T3, CXCL8_HUMAN (human, UniProt P10145 28-99); assay: as above
T3 construct: Biotinylated (detected with streptavidin-Alexa647) in yeast display; AlexaFluor 647 labelled (Almac) in thermophoresis
T3 sequence: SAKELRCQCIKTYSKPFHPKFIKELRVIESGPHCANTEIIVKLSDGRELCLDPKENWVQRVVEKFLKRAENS

[4] = target: T4, CCL25_HUMAN (human, UniProt O15444 24-150); assay: as above
T4 construct: Biotinylated (detected with streptavidin-Alexa647) in yeast display; AlexaFluor 647 labelled (Almac) in thermophoresis
T4 sequence: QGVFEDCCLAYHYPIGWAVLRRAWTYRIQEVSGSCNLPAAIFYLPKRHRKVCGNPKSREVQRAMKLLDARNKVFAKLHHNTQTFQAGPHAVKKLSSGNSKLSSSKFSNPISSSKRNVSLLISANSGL

[5] = target: T5, CCL19_HUMAN (human, UniProt Q99731 22-98); assay: yeast surface display FACS re-test, >3 fold MFI over control (col D);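 further: yeast displaying putative tick Evasins stained with biotinylated human chemokine plus streptavidin-Alexa647, flow cytometry, positive when MFI exceeds 3-fold the empty-vector or no-chemokine background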
T5 construct: Biotinylated (detected with streptavidin-Alexa647) in yeast display; AlexaFluor 647 labelled (Almac) in thermophoresis
T5 sequence: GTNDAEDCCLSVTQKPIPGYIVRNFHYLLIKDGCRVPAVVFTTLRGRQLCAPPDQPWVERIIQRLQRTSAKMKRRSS

[6] = target: T6, CCL5_HUMAN (human, UniProt P13501 24-91); assay: as above
T6 construct: Biotinylated (detected with streptavidin-Alexa647) in yeast display; AlexaFluor 647 labelled (Almac) in thermophoresis
T6 sequence: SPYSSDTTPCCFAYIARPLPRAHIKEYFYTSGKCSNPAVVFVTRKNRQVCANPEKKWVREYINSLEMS

[7] = target: T7, CCL22_HUMAN (human, UniProt O00626 25-93); assay: as above
T7 construct: Biotinylated (detected with streptavidin-Alexa647) in yeast display; AlexaFluor 647 labelled (Almac) in thermophoresis
T7 sequence: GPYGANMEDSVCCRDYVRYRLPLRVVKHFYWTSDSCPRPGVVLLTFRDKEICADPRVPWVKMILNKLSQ

[8] = target: T8, CCL4 (human, UniProt P13236 24-92); assay: as above
T8 construct: Biotinylated (detected with streptavidin-Alexa647) in yeast display; also called human CCL4
T8 sequence: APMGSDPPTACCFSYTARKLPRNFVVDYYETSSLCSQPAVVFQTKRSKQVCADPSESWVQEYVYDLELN

[9] = target: T9, P1243_AMBAM (Amblyomma americanum, UniProt A0A0C9S461 26-123); assay: yeast surface display library FACS screen, labelled chemokine (col C: isolated in)
T9 construct: Tick evasin; also called Evasin
T9 sequence: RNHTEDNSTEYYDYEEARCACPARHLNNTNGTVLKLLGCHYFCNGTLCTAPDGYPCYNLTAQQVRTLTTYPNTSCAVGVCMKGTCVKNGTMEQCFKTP

[10] = target: T10, P991_AMBCA (Amblyomma cajennense, UniProt A0A023FFD0 29-136); assay: as above
T10 construct: Tick evasin; also called Evasin
T10 sequence: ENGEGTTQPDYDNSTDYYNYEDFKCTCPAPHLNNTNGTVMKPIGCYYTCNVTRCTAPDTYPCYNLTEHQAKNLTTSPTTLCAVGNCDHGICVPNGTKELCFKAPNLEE

[11] = target: T11, P974_AMBCA (Amblyomma cajennense, UniProt A0A023FDY8 22-118); assay: as above
T11 construct: Tick evasin; also called Evasin
T11 sequence: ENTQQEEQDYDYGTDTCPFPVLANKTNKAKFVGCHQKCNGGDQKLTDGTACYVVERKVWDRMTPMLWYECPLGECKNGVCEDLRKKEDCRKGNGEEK

[12] = target: T12, P546_AMBCA (Amblyomma cajennense, UniProt A0A023FBW7 22-118); assay: yeast surface display FACS re-test, >3 fold MFI over control (col D);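 further: yeast displaying putative tick Evasins stained with biotinylated human chemokine plus streptavidin-Alexa647, flow cytometry, positive when MFI exceeds 3-fold the empty-vector or no-chemokine background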
T12 construct: Tick evasin; also called Evasin
T12 sequence: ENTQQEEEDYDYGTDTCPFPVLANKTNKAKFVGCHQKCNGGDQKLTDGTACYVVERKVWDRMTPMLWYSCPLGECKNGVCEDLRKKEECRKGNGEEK

[13] = target: T13, P1182_AMBMA (Amblyomma maculatum, UniProt G3MJ83 27-115); assay: yeast surface display library FACS screen, labelled chemokine (col C: isolated in)
T13 construct: Tick evasin; also called Evasin
T13 sequence: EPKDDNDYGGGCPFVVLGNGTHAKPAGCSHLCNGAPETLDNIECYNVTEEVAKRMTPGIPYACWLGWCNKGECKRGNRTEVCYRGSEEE

[14] = target: T14, P467_RHIPU (Rhipicephalus pulchellus, UniProt L7M8Z8 22-127); assay: as above
T14 construct: Tick evasin; also called Evasin
T14 sequence: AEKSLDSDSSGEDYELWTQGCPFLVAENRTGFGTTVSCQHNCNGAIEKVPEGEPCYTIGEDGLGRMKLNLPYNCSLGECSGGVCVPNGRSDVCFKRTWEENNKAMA

[15] = target: T15, P1181_AMBMA (Amblyomma maculatum, UniProt G3MIX6 26-115); assay: as above
T15 construct: Tick evasin; also called Evasin
T15 sequence: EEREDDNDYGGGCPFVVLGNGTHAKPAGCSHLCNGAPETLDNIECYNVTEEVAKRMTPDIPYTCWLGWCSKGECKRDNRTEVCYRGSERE

[16] = target: T9, P1243_AMBAM; assay: yeast surface display FACS re-test, >3 fold MFI over control (col D);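 further: yeast displaying putative tick Evasins stained with biotinylated human chemokine plus streptavidin-Alexa647, flow cytometry, positive when MFI exceeds 3-fold the empty-vector or no-chemokine background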
[17] = target: T12, P546_AMBCA; assay: microscale thermophoresis, AlexaFluor 647 labelled chemokine
[18] = target: T6, CCL5_HUMAN; assay: yeast surface display library FACS screen, labelled chemokine (col C: isolated in)
[19] = target: T16, CCL20_HUMAN (human, UniProt P78556 27-96); assay: yeast surface display FACS re-test, >3 fold MFI over control (col D);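 further: yeast displaying putative tick Evasins stained with biotinylated human chemokine plus streptavidin-Alexa647, flow cytometry, positive when MFI exceeds 3-fold the empty-vector or no-chemokine background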
T16 construct: Biotinylated (detected with streptavidin-Alexa647) in yeast display; AlexaFluor 647 labelled (Almac) in thermophoresis

[20] = target: T17, CCL8_HUMAN (human, UniProt P80075 24-99); assay: as above
T17 construct: Biotinylated (detected with streptavidin-Alexa647) in yeast display; AlexaFluor 647 labelled (Almac) in thermophoresis
T17 sequence: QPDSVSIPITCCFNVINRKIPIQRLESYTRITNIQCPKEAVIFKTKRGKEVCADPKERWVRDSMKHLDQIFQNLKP

[21] = target: T18, CCL18_HUMAN (human, UniProt P55774 21-89); assay: as above
T18 construct: Biotinylated (detected with streptavidin-Alexa647) in yeast display; AlexaFluor 647 labelled (Almac) in thermophoresis
T18 sequence: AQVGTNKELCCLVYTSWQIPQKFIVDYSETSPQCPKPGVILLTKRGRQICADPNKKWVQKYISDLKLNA

[22] = target: B3; assay: as above
[23] = target: T19, CXCL10_HUMAN (human, UniProt P02778 22-98); assay: as above
T19 construct: Biotinylated (detected with streptavidin-Alexa647) in yeast display; AlexaFluor 647 labelled (Almac) in thermophoresis
T19 sequence: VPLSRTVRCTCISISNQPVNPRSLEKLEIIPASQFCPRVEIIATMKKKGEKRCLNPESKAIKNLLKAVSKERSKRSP

[24] = target: T4, CCL25_HUMAN; assay: as above
[25] = target: B4; assay: yeast surface display library FACS screen, labelled chemokine (col C: isolated in)
[26] = target: T5, CCL19_HUMAN; assay: as above
[27] = target: T19, CXCL10_HUMAN; assay: as above
[28] = target: T16, CCL20_HUMAN; assay: as above
[29] = target: B3; assay: as above

T2 sequence (P51671 24-97 limits assumed): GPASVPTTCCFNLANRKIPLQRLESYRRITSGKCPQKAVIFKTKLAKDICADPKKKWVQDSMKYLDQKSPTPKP
T16 sequence (P78556 27-96 limits assumed): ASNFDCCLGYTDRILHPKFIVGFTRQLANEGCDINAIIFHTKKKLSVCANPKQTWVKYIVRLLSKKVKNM

B1: P1006_AMBCA (other)
chain: DTIGGIPGCGDPATTSAPEDQPKHYAVRTDKNGCKVMVIGTWMTKEDHNLLPPYISKERAPSGKVQLPASCKKNCHGKLKNLPNGTPCREVFGDLRRRRKHIKDGCKVGKCQNGLCVSEERIISCYLPPNITDPRPTHGPLAE
notes: Tick evasin; also called Evasin
binding result [1]: binds
binding result [2]: binds
binding result [3]: binds
binding result [4]: binds
binding result [5]: binds
binding result [6]: binds
binding result [7]: binds

B2: P1014_AMBCA (other)
chain: DIIGGIPGCGDPTTTSAPEVPPKHFAVRTDKDGCTLMIIGTWMTTEDHNRLPPDIGEKRAPYGRVQLPASCKKNCHGKVKNLPNGTPCREVFGDPRRGRKHIKNGCTVGKCQSGLCVTDKRIISCYIPPNITDPIPTHGPWAE
notes: as for B1
binding result [1]: binds
binding result [2]: binds
binding result [4]: binds
binding result [8]: binds

B3
binding result [9]: binds
binding result [10]: binds
binding result [11]: binds
binding result [12]: binds

B4
binding result [13]: binds
binding result [14]: binds
binding result [15]: binds
binding result [16]: binds
Kd [17]: 171 nM

B5: P1209_AMBPA (other)
chain: KTDTKNAAGELPPKVAIPGCEDPATTKAPLPDDPRYYGVTIDKDGCQRKVLGSSQRQQRQVQNGRKPGRKGRGRRPVFVDLKLTVDCKRKCNGTYSQLPDGEPCLVCDGEPYGRHRTIKGGCYQGNCSSGQCHRGERKVNCYIPKNITNNVLNSVNLAE
notes: as for B1
binding result [1]: binds
binding result [18]: binds
binding result [2]: binds
binding result [3]: binds
binding result [19]: binds
binding result [20]: binds
binding result [5]: binds
binding result [21]: binds
binding result [22]: binds
binding result [23]: binds
binding result [24]: binds

B6: P1224_IXORI (other)
chain: SDLCKMEAESSPFKLPQSSLLDAPDEEGCKYQLLFVEAEGPLVVNCTKDCPNGKIRTVVEGELCIAMVKTSSSGEATGLVGSCKRGSCVKKDDPCRTFTLSEEGDDDEEDEEEEEDEEEDEEEDEEEEEEDEEEED
notes: as for B1
binding result [25]: binds
binding result [26]: binds
binding result [27]: binds

B7: P1252_AMBAM (other)
chain: RGGAASVPANASIPGCGDAQTTPAAPEDQPKHYVVYRDGNGCEVKIIGTWMTTEDYNCLPDTFRKNRAPHGKVKLPASCKKTCGNAVQNLKDGTPCRKVFGDLGRRRNLIKNGCLVGACQSGLCVSGNRTISCYIPPNSTDTRATPGSFAE
notes: as for B1
binding result [28]: binds
binding result [2]: binds
binding result [29]: binds

B8: P993_AMBPA (other)
chain: HRHYDPNEPCLIAGLKTPRDALPAGCRYDCMIKKNQKLRDGLLCLDVPEKVVKRMVNYLNYSCPLGTCRKGICKRKHRNVRCQKYPVFYMSPPK
notes: Tick evasin
binding result [28]: binds
binding result [1]: binds
binding result [2]: binds
binding result [3]: binds
binding result [29]: binds
binding result [4]: binds
binding result [6]: binds

Reference: patent publication US20220175942A1 (OXFORD UNIVERSITY INNOVATION, published 2022)
